{"source": "patent US20220010003A1", "about": "(Boehringer Ingelheim, published 2022)", "key": {"[1]": {"biological_target": "T1, recombinant human periostin (human, UniProt Q15063 22-836)", "T1 sequence": "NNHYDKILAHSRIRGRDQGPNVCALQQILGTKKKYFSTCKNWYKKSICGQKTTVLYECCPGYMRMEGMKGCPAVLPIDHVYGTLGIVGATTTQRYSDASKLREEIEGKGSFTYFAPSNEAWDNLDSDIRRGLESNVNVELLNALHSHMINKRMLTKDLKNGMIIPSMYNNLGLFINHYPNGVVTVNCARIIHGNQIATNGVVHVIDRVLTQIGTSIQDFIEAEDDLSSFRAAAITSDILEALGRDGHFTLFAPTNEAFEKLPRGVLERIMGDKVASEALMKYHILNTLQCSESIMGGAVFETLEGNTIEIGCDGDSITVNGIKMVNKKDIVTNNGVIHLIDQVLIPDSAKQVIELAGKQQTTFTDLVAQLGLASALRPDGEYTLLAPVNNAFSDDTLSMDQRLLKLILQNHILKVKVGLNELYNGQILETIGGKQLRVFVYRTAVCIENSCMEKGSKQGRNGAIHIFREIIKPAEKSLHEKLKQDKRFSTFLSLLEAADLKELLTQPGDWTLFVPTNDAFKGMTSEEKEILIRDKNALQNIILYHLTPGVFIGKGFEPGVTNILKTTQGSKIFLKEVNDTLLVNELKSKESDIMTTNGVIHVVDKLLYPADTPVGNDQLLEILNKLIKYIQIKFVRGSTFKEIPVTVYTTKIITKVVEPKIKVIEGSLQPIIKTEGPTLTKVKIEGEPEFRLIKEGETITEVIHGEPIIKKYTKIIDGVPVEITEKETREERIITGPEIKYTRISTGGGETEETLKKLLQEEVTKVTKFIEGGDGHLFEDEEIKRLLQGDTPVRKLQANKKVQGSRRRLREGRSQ", "assay": "cell-based or functional assay"}, "[2]": {"biological_target": "T2, recombinant mouse periostin (mouse, UniProt Q62009-2 24-811, limits assumed)", "T2 sequence (looked up)": "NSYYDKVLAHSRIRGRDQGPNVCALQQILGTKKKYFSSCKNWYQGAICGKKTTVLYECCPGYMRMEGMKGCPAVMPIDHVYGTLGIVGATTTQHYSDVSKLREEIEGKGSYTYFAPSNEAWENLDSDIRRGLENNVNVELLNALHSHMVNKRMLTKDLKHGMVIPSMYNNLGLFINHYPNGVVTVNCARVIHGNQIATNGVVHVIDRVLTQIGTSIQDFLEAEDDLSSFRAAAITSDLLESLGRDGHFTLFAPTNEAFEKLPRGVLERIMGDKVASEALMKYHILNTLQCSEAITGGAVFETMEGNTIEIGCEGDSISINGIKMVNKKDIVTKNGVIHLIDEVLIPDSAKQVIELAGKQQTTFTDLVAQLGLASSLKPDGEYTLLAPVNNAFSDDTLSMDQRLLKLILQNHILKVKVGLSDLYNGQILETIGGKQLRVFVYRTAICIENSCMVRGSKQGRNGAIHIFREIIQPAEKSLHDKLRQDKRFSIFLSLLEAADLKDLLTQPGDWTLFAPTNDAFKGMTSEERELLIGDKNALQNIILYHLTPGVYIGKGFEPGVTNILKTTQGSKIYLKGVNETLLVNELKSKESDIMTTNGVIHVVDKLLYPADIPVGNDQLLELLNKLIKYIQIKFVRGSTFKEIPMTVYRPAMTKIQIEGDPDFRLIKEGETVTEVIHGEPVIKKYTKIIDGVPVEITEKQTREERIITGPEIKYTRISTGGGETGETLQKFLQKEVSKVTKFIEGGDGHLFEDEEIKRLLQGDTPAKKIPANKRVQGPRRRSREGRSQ", "assay": "cell-based or functional assay"}, "[3]": {"biological_target": "T2, recombinant mouse periostin", "assay": "BLI (Octet Red); Table 6 ties the low end of the range to mouse periostin", "description": "NB0828's binding affinity was determined across human, mouse, rat, and cyno species. NB0828 affinities were determined using the octet red system. Briefly, anti-human Fc (AHC) biosensors were used to capture NB0828, followed by association of titrating amounts of either recombinant human, mouse, rat, or cyno periostin (100 nM→0 nM; 1:2 dilutions). Recombinant human, mouse, and rat periostin was purchased commercially from R&D systems, whereas cyno periostin was made internally."}, "NB1246 (V295A)": {"biological_target": "T3, NB1246 (V295A) (human, UniProt Q15063 22-631, limits assumed)", "T3 construct": "also called POSTN EMI-FAS4 V295A", "T3 sequence": "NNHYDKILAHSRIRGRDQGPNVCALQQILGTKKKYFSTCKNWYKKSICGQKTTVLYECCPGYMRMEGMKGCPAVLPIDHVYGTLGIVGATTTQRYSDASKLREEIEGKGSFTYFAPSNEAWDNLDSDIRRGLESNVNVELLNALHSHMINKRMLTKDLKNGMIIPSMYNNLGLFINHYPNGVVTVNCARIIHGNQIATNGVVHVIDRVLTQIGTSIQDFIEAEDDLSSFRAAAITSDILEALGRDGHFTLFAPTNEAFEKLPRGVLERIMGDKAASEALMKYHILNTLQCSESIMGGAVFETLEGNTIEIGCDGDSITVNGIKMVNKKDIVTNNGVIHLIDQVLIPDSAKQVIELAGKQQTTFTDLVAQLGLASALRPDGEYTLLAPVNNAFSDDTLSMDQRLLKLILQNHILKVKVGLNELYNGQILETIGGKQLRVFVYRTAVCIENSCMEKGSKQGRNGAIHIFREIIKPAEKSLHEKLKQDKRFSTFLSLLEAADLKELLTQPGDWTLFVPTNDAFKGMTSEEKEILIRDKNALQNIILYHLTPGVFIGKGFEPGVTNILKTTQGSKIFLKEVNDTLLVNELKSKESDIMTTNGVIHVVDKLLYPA", "assay": "ELISA on alanine variants of POSTN EMI-FAS4, second screen"}}}
{"binder": "NB0828 (antibody, V domains shown) VH: QVQLVQSGAEVKKPGASVKVSCKASGYTFTSYGISWVRQAPGQGLEWMGWISAYNGNTNYAQKLQGRVTMTTDTSTSTAYMELRSLRSDDTAVYYCARDMLVVPFDYWGQGTLVTVSS VL: QSVLTQSSSASGTPGQTVTVSCSGSSSDIGSNRVNWYQQLPGTAPKLLIYSNDQRPSGVPDRFSGSKSGTSASLAISGLQSADEADYYCAAWDDSLSTYVFGSGTKVTVL", "values": [{"measurement": "CAA IC50", "setting": "[1]", "result": 0.0243, "unit": "µM"}, {"measurement": "CAA IC50", "setting": "[2]", "result": 0.026, "unit": "µM"}, {"measurement": "Kd", "setting": "[3]", "result": 0.0001, "unit": "µM"}, {"measurement": "loss from the max signal", "setting": "NB1246 (V295A)", "result": "> 50", "unit": "%"}]}
